Here are results for one protein from doi:10.1101/857136, “Structural characterization of an intermediate reveals a unified mechanism for the CLC Cl^−/H^+ transport cycle” (bioRxiv, 2019).

This data set concerns the molecule itself. In words: crystal structure; lipidic cubic phase (monoolein with 10% cholesterol), without any antibody Fab fragment; 16 °C; 100 mM Tris pH 8.5, 100 mM sodium malonate, 30% PEG 400, 2.5% MPD; 2.6 Å.

B1: CLC-ec1 QQQ mutant (E148Q/E203Q/E113Q) (natural protein)
chain: MKTDTPSLETPQAARLRRRQLIRQLLERDKTPLAILFMAAVVGTLVGLAAVAFDKGVAWLQNQRMGALVHTADNYPLLLTVAFLCSAVLAMFGYFLVRKYAPEAGGSGIPEIQGALEDQRPVRWWRVLPVKFFGGLGTLGGGMVLGRQGPTVQIGGNIGRMVLDIFRLKGDEARHTLLATGAAAGLAAAFNAPLAGILFIIEQMRPQFRYTLISIKAVFIGVIMSTIMYRIFNHEVALIDVGKLSDAPLNTLWLYLILGIIFGIFGPIFNKWVLGMQDLLHRVHGGNITKWVLMGGAIGGLCGLLGFVAPATSGGGFNLIPIATAGNFSMGMLVFIFVARVITTLLCFSSGAPGGIFAPMLALGTVLGTAFGMVAVELFPQYHLEAGTFAIAGMGALLAASIRAPLTGIILVLEMTDNYQLILPMIITGLGATLLAQFTGGKPLYSAILARTLAKQEAEQLARSK
notes: CLC-ec1, prokaryotic CLC Cl-/H+ exchange transporter, with glutamines in place of Gluex (E148), Gluin (E203) and E113; The final crystallographic model holds all residues except those of helix A (no density); PDB 1ots is the wild-type parent used as search model; also called QQQ protein
In the case of B1, the binding result is given as “binds”.
